Measurements from PMC3259531.

Target: Gdown1 (in vitro, construct not stated) (UniProt P0CAP2)

Chain of Gdown1 (in vitro, construct not stated) (from UniProt P0CAP2-1 1-368) (natural protein) (P0CAP2 whole entry): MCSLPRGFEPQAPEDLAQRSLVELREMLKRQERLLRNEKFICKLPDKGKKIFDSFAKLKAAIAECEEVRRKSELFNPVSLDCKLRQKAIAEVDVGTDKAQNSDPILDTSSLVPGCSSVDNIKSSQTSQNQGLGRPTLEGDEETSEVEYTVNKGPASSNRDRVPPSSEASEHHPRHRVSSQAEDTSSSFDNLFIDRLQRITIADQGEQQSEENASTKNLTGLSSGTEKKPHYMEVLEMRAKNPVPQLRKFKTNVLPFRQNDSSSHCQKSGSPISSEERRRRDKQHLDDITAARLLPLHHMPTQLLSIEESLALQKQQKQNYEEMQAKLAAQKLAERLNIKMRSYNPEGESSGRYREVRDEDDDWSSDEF

Gdown1 (in vitro, construct not stated) (from UniProt P0CAP2-1 1-368) (natural protein)
stoichiometry N: 2
